This series concerns MS2 coat protein. Kind of series: apparent KD of MS2 coat protein; designed switch direction (-1 OFF switch, 1 ON switch): -1; higher = weaker reporter binding. The procedure, abridged:
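Stalled E. coli RNA polymerase transcribed designed RNA switches on Illumina chips, which were then titrated with SNAP-549-labelled MS2 coat protein, doubling from 0.7 or 1.5 nM to 3 µM. Steps lasted from 0.8–1.5 h at the lowest concentration to 10–20 min at the highest. The apparent KD is each design's median over clusters of curve-fitted normalised fluorescence.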

[1] abbreviates: input ligand: microRNA oligo, concentration not stated.
Setting [2] is: Eterna round: R95, input ligand: FMN 200 uM.
[3] abbreviates: Eterna round: R95, input ligand: microRNA oligo, concentration not stated.
Setting [4] is: Eterna round: R95, input ligand: none.

For “UAGGCACCUGCAGGAUAUUAGAGGCGCUUUCUGUAAGAAGGGCAGGUUCACAUGAGGAUCACCCAUGUAAAGAACAGCAUGGCA [Eternabot solution 24] (Eterna round: R96, puzzle: Exclusion NG 1)”, the “apparent KD of MS2 coat protein” value (input ligand: FMN 200 uM) was 23.1 nM, the “apparent KD of MS2 coat protein” value under setting [1] came out at 17.4 nM and the “apparent KD of MS2 coat protein” value (input ligand: none) amounted to 28.9 nM.
On to “UAGGUACAUGAGGAUCACCCAUGUGAGGAUAUAGUUGAAGAUUGCGAGAGGUUGAGGACUAGAAGGCACAGUGG [JR_Exclu1_Sub038] (puzzle: Exclusion 1)”, for which the “apparent KD of MS2 coat protein” value is, setting by setting: under setting [2], 137 nM; under setting [3], 63.5 nM; under setting [4], 90.2 nM.
With “UAGGUGUGAGGAUAUGGUAAAGAUAAGAUGAUGAAAGAACUCCAGAAGGCACAUGAGGAUCACCCAUGUAGAUG [JL-ex4-2.16 Jieux mod] (puzzle: Exclusion 4)”, the “apparent KD of MS2 coat protein” value under setting [3] turned out to be 33.3 nM.
With “UAGUAUAUCUAUGGGAGUAACAUGAGGAUCACCCAUGUAUGUCUUGUUUUUUGUUCGUCAUAGGCCGGUUGAACGGU [JR_SV3TOV1_Sub027] (puzzle: Sensor v3, turn-off variant 1)”, the “apparent KD of MS2 coat protein” value reads like this: under setting [2], 23.3 nM; under setting [3], 27.7 nM; under setting [4], 26.5 nM.
In the case of “UAGUGAAACACAGGAUAUCGCCUCUUAUUACAUGAGGAUCACCCAUGUUUAGUUAGUUACAUGUACGAGAAGGGUGAAGUAGUU [JR_ExcNG2_Sub040] (Eterna round: R96, puzzle: Exclusion NG 2)”, the “apparent KD of MS2 coat protein” value reads like this: (input ligand: FMN 200 uM) 1110 nM; under setting [1], 674 nM; (input ligand: none) 1430 nM.
As for “UAGUGGUUACGUUGGAGUUGUAUGAGCGGAGGCUCUGUGACAUGAGGAUCACCCAUGUAGCUUUUUGCUCGUCUUAA [JR_SV3TOV2_Sub039] (puzzle: Sensor v3, turn-off variant 2)”, the “apparent KD of MS2 coat protein” value runs as follows: under setting [2], 22.5 nM; under setting [3], 41.5 nM; under setting [4], 22.6 nM.
Regarding “UAUAAACAUGAGGAUCACCCAUGUGAGGAUAUCUAAACCAGAGCGGAUCUCUGGACCAAGAGAAGGUGCAUGGU [ElNandoxlusion 10 - Jieux - Exclusion 1] (Eterna round: R97, puzzle: Exclusion 1)”, the “apparent KD of MS2 coat protein” value by setting is: (input ligand: FMN 200 uM) 66.9 nM; (input ligand: none) 31.7 nM.
With “UAUAAAGGCUCAGGAUAUGGUGCGUCACAUGAGGAUCACCCAUGUAACGUGGCGGAACCUGCGCGCUAGAAGGGAGUAGCGAAA [Laensoqu] (Eterna round: R96, puzzle: Exclusion NG 2)”, the “apparent KD of MS2 coat protein” value (input ligand: FMN 200 uM) was found to be 8.44 nM, the “apparent KD of MS2 coat protein” value under setting [1] stood at 8.05 nM and the “apparent KD of MS2 coat protein” value (input ligand: none) was 10.7 nM.
In the case of “UAUAAGAUAGGAUAUACAGGCCCGUCUUCAUAUUGAUCCCGACAUGAGGAUCACCCAUGUAGAAGGAUCGUAUA [Mod 23 - Jieux - Exclusion 2] (Eterna round: R97, puzzle: Exclusion 2)”, the “apparent KD of MS2 coat protein” value was found to be 23.3 nM (input ligand: FMN 200 uM) and 21.9 nM (input ligand: none).
As to “UAUAAUCGAGGAUAUACAUGAGGAUCACCCAUGUGUUGCCGCGUGACAUGAUCGUCAGGUAGAAGGCGAUUAUA [Exclusion 3 - Mod of Jieux's Gilly Gone Silly 23 v.10] (puzzle: Exclusion 3)”, the “apparent KD of MS2 coat protein” value under setting [3] is 147 nM.
Take “UAUAUAUAGUAAGGAUAUAUAUUUUUUUUUUAAAUAGAAGGUACAGACAUGAGGAUCACCCAUGUUAUAAUAUGGACAUGUGGA [JMF's Solution 3] (Eterna round: R96, puzzle: Exclusion NG 1)”: the “apparent KD of MS2 coat protein” value under setting [1] is 113 nM.
Take “UAUAUAUAGUAAGGAUAUGUAAUUAUUUUAUACACAGAAGGUACUGACAUGAGGAUCACCCAUGUUUUAGUGUGGGCAUGUAGA [JMF's solution 51] (Eterna round: R96, puzzle: Exclusion NG 1)”: the “apparent KD of MS2 coat protein” value under setting [1] was 47.1 nM.
For the sequence “UAUAUAUAGUAAGGAUAUGUAAUUAUUUUAUUAACAGAAGGUACUGACAUGAGGAUCACCCAUGUUUUAGUGUGGGCAUGUAGA [JMF's solution 47] (Eterna round: R96, puzzle: Exclusion NG 1)”, the “apparent KD of MS2 coat protein” value under setting [1] was 72.6 nM.
Consider “UAUAUAUAGUAAGGAUAUGUAGUUAUUUUAUAAACAGAAGGUACUGACAUGAGGAUCACCCAUGUUUUAGUGUGGGCAUGUAGA [JMF's solution 6] (Eterna round: R96, puzzle: Exclusion NG 1)”, for which, under setting [1], the “apparent KD of MS2 coat protein” value turned out to be 71.1 nM.
In the case of “UAUAUAUAGUAAGGAUAUGUAUUAAUGUUAUAAACAGAAGGUACUGACAUGAGGAUCACCCAUGUUUUAGUGUGGGCAUGUAGA [JMF's solution 78] (Eterna round: R96, puzzle: Exclusion NG 1)”, the “apparent KD of MS2 coat protein” value under setting [1] was found to be 73.8 nM.
For the sequence “UAUAUAUAGUAAGGAUAUGUAUUAAUUGUAUAAACAGAAGGUACUGACAUGAGGAUCACCCAUGUUUUAGUGUGGGCAUGUAGA [JMF's solution 81] (Eterna round: R96, puzzle: Exclusion NG 1)”, the “apparent KD of MS2 coat protein” value under setting [1] worked out at 71.7 nM.
On the same count and under the same terms, the value for “UAUAUAUAGUAAGGAUAUGUAUUAAUUUUACAAACAGAAGGUACUGACAUGAGGAUCACCCAUGUUUUAGUGUGGGCAUGUAGA [JMF's solution 89] (Eterna round: R96, puzzle: Exclusion NG 1)” was 45.9 nM.
On the same count and under the same terms, the same measure for “UAUAUAUAGUAAGGAUAUGUAUUAAUUUUAUCAACAGAAGGUACUGACAUGAGGAUCACCCAUGUUUUAGUGUGGGCAUGUAGA [JMF's solution 92] (Eterna round: R96, puzzle: Exclusion NG 1)”: 65.2 nM.
Regarding “UAUAUAUAGUAAGGAUAUGUAUUUAUUUCAUAAACAGAAGGUACUGACAUGAGGAUCACCCAUGUUUUAGUGUGGGCAUGUAGA [JMF's solution 21] (Eterna round: R96, puzzle: Exclusion NG 1)”, the “apparent KD of MS2 coat protein” value under setting [1] worked out at 62.1 nM.
As for “UAUAUAUAGUAAGGAUAUGUAUUUAUUUUGUAAACAGAAGGUACUGACAUGAGGAUCACCCAUGUUUUAGUGUGGGCAUGUAGA [JMF's solution 22] (Eterna round: R96, puzzle: Exclusion NG 1)”, the “apparent KD of MS2 coat protein” value (input ligand: FMN 200 uM) was 147 nM, the “apparent KD of MS2 coat protein” value under setting [1] is 78.5 nM and the “apparent KD of MS2 coat protein” value (input ligand: none) was 141 nM.
On to “UAUAUGUCAGGAUAUUAGUAGUAAAUGAAUAAAAUUAUUACUGAGAAGGGACAUGAGGAUCACCCAUGUGCCUC [Mat - Exclusion 4 - Eli Mod - D24] (Eterna round: R97, puzzle: Exclusion 4)”, for which the “apparent KD of MS2 coat protein” value is, setting by setting: (input ligand: FMN 200 uM) 387 nM; (input ligand: none) 37.4 nM.
Take “UAUAUGUCAGGAUAUUAGUAGUGGAUGAAUAAGAUUAUUGCUGAGAAGGGACAUGAGGAUCACCCAUGUUCCUC [JR_Ex4_Sub002] (Eterna round: R97, puzzle: Exclusion 4)”: the “apparent KD of MS2 coat protein” value came to 27.5 nM (input ligand: FMN 200 uM) and 18.5 nM (input ligand: none).
Take “UAUAUGUGAGGAUAUCAGGUGUGCUAGCGAACUGGUACAUCUGAGAAGGCACAUGAGGAUCACCCAUGUAUCUU [Mat - Exclusion 4 - Mod of JL - D46] (puzzle: Exclusion 4)”: the “apparent KD of MS2 coat protein” value under setting [3] is 26.3 nM.
As for “UAUCAGCAAGUGAGGAUAUAGAGAACGGUUGUUGGCUAGAAGGCACUUGAGGAUCACCCAAGUCGCAAAGUGGC [Mamausonbe] (Eterna round: R97, puzzle: Brourd's mod of Exclusion 4)”, the “apparent KD of MS2 coat protein” value (input ligand: FMN 200 uM) was found to be 134 nM and the “apparent KD of MS2 coat protein” value (input ligand: none) was found to be 29.3 nM.
Turning to “UAUCAUCAUGUAGGAUAUGCGUGGCAAAGCUAUGCAGAAGGACAUGAGGAUCACCCAUGUUCUAGCGUCUGCGUACAGAUGCUA [Mat - Exclusion NG 1 - Mod of JL - D74] (Eterna round: R96, puzzle: Exclusion NG 1)”, the “apparent KD of MS2 coat protein” value reads like this: (input ligand: FMN 200 uM) 247 nM; under setting [1], 45.2 nM; (input ligand: none) 68.7 nM.
As to “UAUCGGCGGACCCAGGCUUUUUGCUCGUCUUAUGCUAUGACAUGAGGAUCACCCAUGUGGUGGUGGUCCGUUGUAGU [JL ViennaUCT Bitein mod 11] (puzzle: Sensor v3, turn-off variant 2)”, the “apparent KD of MS2 coat protein” value is, setting by setting: under setting [2], 21.1 nM; under setting [3], 11.3 nM; under setting [4], 19.5 nM.
“UAUCGGGACUGAGGAUAUUCGUUCGAACGCGAAGAAGAAGGUAGUGUCAGGGACAUGAGGAUCACCCAUGUGAUUUCAGUCCCA [JL ViennaUCT Erinle mod 5] (Eterna round: R96, puzzle: Exclusion NG 1)”: the “apparent KD of MS2 coat protein” value was 98.2 nM (input ligand: FMN 200 uM), 56.1 nM under setting [1] and 99 nM (input ligand: none).
For the sequence “UAUCUACAUGAGGAUCACCCAUGUGAGGAUAUCAAAACCAGAGCGGAUCUCUGGCCCAUGAGAAGGUACAUGGU [ElNandoxlusion 5 - Jieux - Exclusion 1] (Eterna round: R97, puzzle: Exclusion 1)”, the “apparent KD of MS2 coat protein” value runs as follows: (input ligand: FMN 200 uM) 59.2 nM; (input ligand: none) 20 nM.
Turning to “UAUGGUUAAGUCAGGAUAUGCACGAAGAGAACAAAGCAGAAGGGACAUGAGGAUCACCCAUGUAAAGUCGUGUU [Ex4 #76] (Eterna round: R97, puzzle: Brourd's mod of Exclusion 4)”, the “apparent KD of MS2 coat protein” value (input ligand: FMN 200 uM) amounted to 28.4 nM and the “apparent KD of MS2 coat protein” value (input ligand: none) was 32 nM.
On to “UAUUAAACAAGCAGAUCCCACAUGAGGAUCACCCAUGUGCUCGUCUUAUAAGGUACUGUGACGAGAGUCACGGUACC [Mat - Sensor, turn-off var - Eli Mod - D63] (Eterna round: R97, puzzle: Sensor, turn-off variant 1)”, for which the “apparent KD of MS2 coat protein” value by setting is: (input ligand: FMN 200 uM) 42.5 nM; (input ligand: none) 45.2 nM.
On to “UAUUAACAAGCAAGAUCCUACAUGAGGAUCACCCAUGUGCUCGUCUUGUAAGGUACUGUGACGAAAGUCACGGUACC [Sensor 3, v1 - 71] (puzzle: Sensor v3, turn-off variant 1)”, for which the “apparent KD of MS2 coat protein” value is, setting by setting: under setting [2], 22 nM; under setting [3], 232 nM; under setting [4], 18.9 nM.

The values above are taken from the supplement of paper PMC9170038.
